Assay results as given in patent US20210363177A1.

Key:
[1] = target: Trastuzumab (glycan-intact) (Homo sapiens)

| % DOL 2 (fraction of antibody fully modified with 3-APA, LC-MS) [1] | % DOL 2 (fraction of antibody fully modified with 3-APA, LC-MS) (Pertuzumab) | % DOL 2 (fraction of antibody fully modified with 3-APA, LC-MS) (Panitumumab) | Substance |
| --- | --- | --- | --- |
| 81% | – | – | Activa TI microbial transglutaminase (Ajinomoto) (enzyme) |
| – | 100% | 69% | recombinant Microbial transglutaminase from Zedira (catalog number T001) (enzyme) |
